Molecular target: the molecule itself
Assay: crystal structure; ferrous hTDO (45 mg/ml) with 10 mM L-Trp, under-oil microbatch, anaerobic, 18 °C; precipitant 50 mM sodium citrate pH 5.6, 5% PEG 3350, 2% Tacsimate pH 5; one crystal mounted anaerobically, one soaked overnight in O2-saturated solution; four subunits (A-D) form the tetramer

B1: human tryptophan 2,3-dioxygenase (enzyme)
chain: LPVEGSEEDKSQTGVNRASKGGLIYGNYLHLEKVLNAQELQSETKGNKIHDEHLFIITHQAYELWFKQILWELDSVREIFQNGHVRDERNMLKVVSRMHRVSVILKLLVQQFSILETMTALDFNDFREYLSPASGFQSLQFRLLENKIGVLQNMRVPYNRRHYRDNFKGEENELLLKSEQEKTLLELVEAWLERTPGLEPHGFNFWGKLEKNITRGLEEEFIRIQAKEESEEKEEQVAEFQKQKEVLLSLFDEKRHEHLLSKGERRLSYRALQGALMIYFYREEPRFQVPFQLLTSLMDIDSLMTKWRYNHVCMVHRMLGSKAGTGGSSGYHYLRSTVSDRYKVFVDLFNLSTYLIPRHWIPKMNPTIHKFL
notes: tryptophan 2,3-dioxygenase, human; Heme protein, crystallized in the ferrous state with L-Trp (and O2 or NFK); The construct lacks the N-terminal residues up to at least K17, and K37 lies in a disordered region; also called hTDO; TDO; source: recombinant, purified; oxidized with potassium ferricyanide, G25 column
In the case of B1, the “stoichiometry N” value is reported as 4.
